Tested on: NCI-H292 and Calu-6 tumor tissue
Experiment: In vitro binding of biotinylated AP39 to frozen sections of tumor tissue (ExtrAvidin / DAB staining)
Set-up: species or system human
Details: frozen sections (5-10 μm); NCI-H292 (FIG. 1A) compared to Calu-6 (FIG. 1B)
Experimental: Binding studies were performed in two human NSCLC tumor models in mice: NCI-H292 which is an erlotinib-sensitive epithelial-type model, and Calu-6 which is an erlotinib-resistant mesenchymal-type model.
TCEP-reduced AP39 was biotinylated using 3-(N-maleimidopropionyl) biocytin (Sigma). The in vitro binding of biotinylated AP39 to frozen sections (5-10 μm) of NCI-H292 and Calu-6 tumor tissue was determined by utilizing ExtrAvidin (Sigma) and Liquid DAB Substrate Pack (BioGenex) according to the protocols of the manufacturers.

B1: biotinylated AP39: TCEP-reduced AP39 biotinylated using 3-(N-maleimidopropionyl) biocytin (conjugate)
scFv: EVQLLESGGGLVQPGGSLRLSCAASGFTFSSFSMSWVRQAPGKGLEWVSSISGSSGTTYYADSVKGRFTISRDNSKNTLYLQMNSLRAEDTAVYYCAKPFPYFDYWGQGTLVTVSSGDGSSGGSGGASTGEIVLTQSPGTLSLSPGERATLSCRASQSVSSSFLAWYQQKPGQAPRLLIYYASSRATGIPDRFSGSGSGTDFTLTISRLEPEDFAVYYCQQTGRIPPTFGQGTKVEIKGGGCA
binding to tumor tissue, NCI-H292 compared to Calu-6: more extensive binding
